Measurements: patent US20260242478A1 (published 2026)
Where no end group is shown, it is not given here.

Assays:
[1] = target: T1, PSMA Fab (SEQ ID NOs: 19, 20); assay: competition ELISA, peptide titrated against 0.3 nM PSMA Fab on captured biotinylated PSMA
T1 construct: also called 006 PSMA Fab; anti-PSMA Fab
Experimental: The concentration of peptide required to reduce the maximum signal by 50% (IC₅₀) was calculated in Graphpad Prism software.

006 PSMA Fab [2] = target: T2, 006 PSMA Fab; assay: clonal phage ELISA; biotinylated PSMA Fab on neutravidin plate, bound phage detected with anti-M13-HRP
T2 construct: also called Anti-PSMA Fab
Experimental: (§1) Clonal phage were harvested as crude supernatants and screened via standard ELISAs. […] Prior to the addition of clonal phage. wells were incubated with blocking buffer and PSMA antigen or blocking buffer alone. Without washing or aspirating, clonal phage supernatants were then added to the wells and incubated for a short time. Wells were then washed followed by detection of bound phage using a horse radish conjugated anti-M13 antibody.

006 PSMA Fab [3] = target: T2, 006 PSMA Fab; assay: clonal phage ELISA; biotinylated PSMA Fab on neutravidin plate, PSMA antigen as competitor, anti-M13-HRP
Experimental: as §1

| Binder | IC50 [1] | Phage binding ELISA signal, Anti-PSMA Fab (006 PSMA Fab [2]) | phage binding ELISA signal (Anti-PSMA Fab, wells pre-incubated with PSMA antigen) (006 PSMA Fab [3]) |
| --- | --- | --- | --- |
| SKLLCVPPWMCYHV (cysteine pairing not given here; also: biotinylated (site not given here), PSMA peptide mask (P2)) [Peptide-194] | 10.3 µM | – | – |
| EVKKCVPAWMCESQ [Phage-4004] | – | 0.542 | 0.0538 |
| DGLICQPSWMCTGL [Phage-4001] | – | 0.554 | 0.0705 |
| IMQRCEPLWMCSGL [Phage-4008] | – | 0.471 | 0.0777 |
| HVTMCSPNWMCWGL [Phage-4006] | – | 0.485 | 0.0703 |
| PTSFCRPPWMCEGL [Phage-4007] | – | 0.475 | 0.0592 |
| LTRCVPDWMCYRAV (cysteine pairing not given here; also: biotinylated (site not given here), PSMA peptide mask (P2)) [Peptide-198] | 18.9 µM | – | – |
| DIEVCRPHWMCEGF [Phage-4003] | – | 0.542 | 0.0801 |
| MTNMCRPSWMCAVF [Phage-4002] | – | 0.551 | 0.108 |
| QEMTCVPRWMCSGF [Phage-4000] | – | 0.566 | 0.0832 |
| QLPCHYWGEWCPQA (cysteine pairing not given here; also: biotinylated (site not given here), PSMA peptide mask (P2)) [Peptide-195] | 19.3 µM | – | – |
| QCVWDNFNYWMDCD (cysteine pairing not given here; also: biotinylated (site not given here), PSMA peptide mask (P2)) [Peptide-203] | 36.1 µM | – | – |
| MCQWDELNYWMDCD (cysteine pairing not given here; also: biotinylated (site not given here), PSMA peptide mask (P2)) [Peptide-202] | 11 µM | – | – |
| GPKLCLPMWMCQGF [Phage-4009] | – | 0.459 | 0.0611 |
| LTSWCVPQWMCDGL [Phage-4005] | – | 0.523 | 0.0623 |
| ILPCHWYTSDCPQH (cysteine pairing not given here; also: biotinylated (site not given here), PSMA peptide mask (P2)) [Peptide-200] | 12.2 µM | – | – |
| HCKFHDYHSWYVCY (cysteine pairing not given here; also: biotinylated, site not given here, PSMA peptide mask (P2)) [Peptide-212] | 6.39 µM | – | – |
| QCTWNEKTWWMECE (cysteine pairing not given here; also: biotinylated (site not given here), PSMA peptide mask (P2)) [Peptide-204] | 9.07 µM | – | – |
